Source: paper PMC4114212 (Science signaling, 2012)
Read-outs that look alike come from different tables or passages of the source. One block for each binder: values may come before it.

Key:
[1] = target: T1, Cardif peptide (residues 138 to 158) used for cocrystallization with TRAF3; experiment: crystal structure
T1 peptide: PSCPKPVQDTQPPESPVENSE

[2] = target: the molecule itself; experiment: crystal structure
[3] = target: T2, TRAF domain of mouse TRAF3 (residues 376 through the C terminus), wild type (mouse, UniProt Q60803 376-567); experiment: pull-down
T2 sequence (looked up): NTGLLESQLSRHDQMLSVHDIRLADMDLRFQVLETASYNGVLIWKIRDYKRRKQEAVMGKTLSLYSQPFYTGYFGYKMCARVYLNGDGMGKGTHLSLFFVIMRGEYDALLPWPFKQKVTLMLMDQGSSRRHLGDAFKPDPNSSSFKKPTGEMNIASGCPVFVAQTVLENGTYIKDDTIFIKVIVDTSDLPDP

[4] = target: the molecule itself; experiment: crystal structure; remark: listed apart in the source

- stoichiometry N [1]: 1
B1: recombinant TRAF domain of TRAF3 (residues 376 to 565), shortened by trypsin for crystallisation (domain or fragment, mouse, UniProt Q60803 376-565, looked up)
chain: NTGLLESQLSRHDQMLSVHDIRLADMDLRFQVLETASYNGVLIWKIRDYKRRKQEAVMGKTLSLYSQPFYTGYFGYKMCARVYLNGDGMGKGTHLSLFFVIMRGEYDALLPWPFKQKVTLMLMDQGSSRRHLGDAFKPDPNSSSFKKPTGEMNIASGCPVFVAQTVLENGTYIKDDTIFIKVIVDTSDLP
- stoichiometry N [2]: 3

- binding result [3]: binds
B2: GST-tagged Cardif peptide, residues 138 to 153 (encompasses T2BM) (peptide)
chain: PSCPKPVQDTQPPESP

B3: TRAF domain of TRAF5, crystallised construct (residues 381 through the C-terminal end) (domain or fragment, mouse, UniProt P70191 381-558, looked up)
chain: NIHKAQLNKNEERFKQLEGACYSGKLIWKVTDYRVKKREAVEGHTVSVFSQPFYTSRCGYRLCARAYLNGDGSGKGTHLSLYFVVMRGEFDSLLQWPFRQRVTLMLLDQSGKKNHIVETFKADPNSSSFKRPDGEMNIASGCPRFVSHSTLENSKNTYIKDDTLFLKVAVDLTDLEDL
- stoichiometry N [4]: 3
